The values below come from doi:10.1101/2021.05.28.446204.

Holding throughout (assay): fluorescence polarisation
Assay [1] addresses TAMRA-labeled CoV-2 nsp1 C-K R99A (SARS-CoV-2) (UniProt P0DTD1).
In assay [2] the target is TAMRA-labeled CoV-2 nsp1 C-K R124A/K125A (SARS-CoV-2) (UniProt P0DTD1).
The target in assay [3] is TAMRA-labeled CoV-2 nsp1 C-K, wild type (SARS-CoV-2) (UniProt P0DTD1).

With “purified ribosomes (crude 80S from HeLa cell lysate) (from UniProt P15880;P23396;P62847;P63244) (complex)”, the values for the fold increase in Kd against WT nsp1 in assay [1] and in assay [2] were 1.6 fold and 2 fold, respectively. The substance further showed a Kd in assay [3] of 539 nM.

The term Kd denotes the constant that tells how readily two partners part at equilibrium. Low readings indicate higher affinity, high ones lower affinity.
